For the experiment, the target named is T1, CMV phosphoprotein pp65 (SEQ 34) peptide on HLA-A*11:01 (human).
T1 peptide: ATVQGQNLK
Kind of experiment: multimer staining.

B1: C45 (TCR, V domains shown)
Valpha: DQQVKQNSPSLSVQEGRISILNCDYTNSMFDYFLWYKKYPAEGPTFLISISSIKDKNEDGRFTVFLNKSAKHLSLHIVPSQPGDSAVYFCAASAWNTGNQFYFGTGTSLTVIP
Vbeta: KAGVTQTPRYLIKTRGQQVTLSCSPISGHRSVSWYQQTPGQGLQFLFEYFSETQRNKGNFPGRFSGRQFSNSRSEMNVSTLELGDSALYLCASSLAGYKQETQYFGPGTRLLVL
B1: the binding result is given as “recognises”.

B2: C44 (TCR, V domains shown)
Valpha: AQTVTQSQPEMSVQEAETVTLSCTYDTSESDYYLFWYKQPPSRQMILVIRQEAYKQQNATENRFSVNFQKAAKSFSLKISDSQLGDAAMYFCAYRAFYTGANSKLTFGKGITLSVRP
Vbeta: DAGVTQSPTHLIKTRGQQVTLRCSPKSGHDTVSWYQQALGQGPQFIFQYYEEEERQRGNFPDRFSGHQFPNYSSELNVNALLLGDSALYLCASSFFRGEGNQPQHFGDGTRLSIL
With B2, the binding result is “recognises”.

Values taken from patent publication US20230257447A1 (published 2023).
